Assay results from patent US20140087995A1 (published 2014).
Numbered stars: 1 amine (or outer) side, 2 acyl side, 3 side chain; on linkers, the order of the positions; unused ones are H or OH. Bridge positions count the residues as written; N and C are the ends. Side chains are listed from the residue outwards. Ends that are not written are not given here. * marks the point of attachment. C20 diacid = O=C(O)CCCCCCCCCCCCCCCCCCC(=O)*; γGlu = O=C(O)[C@H](CCC(=O)[*:2])N[*:1]

How the values were obtained:
[1] = molecular target: T1, human calcitonin receptor (human, UniProt P30988 25-474); assay: cell-based or functional assay
T1 sequence (looked up): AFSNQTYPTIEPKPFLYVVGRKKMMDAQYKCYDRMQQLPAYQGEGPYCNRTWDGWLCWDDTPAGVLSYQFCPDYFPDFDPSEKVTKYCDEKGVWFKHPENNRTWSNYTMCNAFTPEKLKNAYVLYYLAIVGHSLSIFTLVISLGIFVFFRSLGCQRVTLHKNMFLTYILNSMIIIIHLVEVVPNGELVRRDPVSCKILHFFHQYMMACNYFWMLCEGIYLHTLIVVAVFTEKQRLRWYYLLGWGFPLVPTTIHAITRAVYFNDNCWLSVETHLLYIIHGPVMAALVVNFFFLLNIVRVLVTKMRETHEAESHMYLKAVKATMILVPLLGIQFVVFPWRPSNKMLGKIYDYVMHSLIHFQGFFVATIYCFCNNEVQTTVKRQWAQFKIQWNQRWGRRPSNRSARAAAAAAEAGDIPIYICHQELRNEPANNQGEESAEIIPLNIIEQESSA

[2] = molecular target: T2, human amylin receptor (amylin 3(a) receptor: human calcitonin receptor with RAMP-3) (human, UniProt P30988 25-474; O60896 24-148, limits assumed); assay: cell-based or functional assay
T2 sequence (looked up) 1: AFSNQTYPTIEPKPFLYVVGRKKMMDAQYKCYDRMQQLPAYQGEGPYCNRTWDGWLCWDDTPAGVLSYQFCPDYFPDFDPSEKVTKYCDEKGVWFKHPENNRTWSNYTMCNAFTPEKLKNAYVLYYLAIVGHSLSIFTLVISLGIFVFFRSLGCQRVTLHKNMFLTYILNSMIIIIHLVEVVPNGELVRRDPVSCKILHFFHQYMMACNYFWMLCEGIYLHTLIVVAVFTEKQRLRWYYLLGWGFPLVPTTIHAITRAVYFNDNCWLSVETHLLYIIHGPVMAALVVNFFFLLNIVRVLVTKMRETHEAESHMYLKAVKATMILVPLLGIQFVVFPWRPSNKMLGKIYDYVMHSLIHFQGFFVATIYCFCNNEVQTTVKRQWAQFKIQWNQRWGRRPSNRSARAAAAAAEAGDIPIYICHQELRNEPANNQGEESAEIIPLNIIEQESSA
T2 sequence (looked up) 2: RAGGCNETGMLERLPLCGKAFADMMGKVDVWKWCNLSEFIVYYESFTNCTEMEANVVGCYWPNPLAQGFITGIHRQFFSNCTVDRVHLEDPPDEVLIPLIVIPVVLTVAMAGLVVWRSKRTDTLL

B1: N^ε1-[(4S)-4-carboxy-4-[[(4S)-4-carboxy-4-(19-carboxynonadecanoylamino)butanoyl]amino]butanoyl]-[Glu14,Arg17,Pro21,Pro27,Pro34,Phe37]-h-amylin (peptide)
peptide: K([γGlu-γGlu-C20 diacid])CNTATCATQRLAEFLRHSSPNFGAIPSSTNVGPNTF-NH2
modifications: disulfide 2-7; N-terminus assumed
SMILES: CC[C@H](C)[C@H](NC(=O)[C@H](C)NC(=O)CNC(=O)[C@H](Cc1ccccc1)NC(=O)[C@H](CC(N)=O)NC(=O)[C@@H]1CCCN1C(=O)[C@H](CO)NC(=O)[C@H](CO)NC(=O)[C@H](Cc1c[nH]cn1)NC(=O)[C@H](CCCNC(=N)N)NC(=O)[C@H](CC(C)C)NC(=O)[C@H](Cc1ccccc1)NC(=O)[C@H](CCC(=O)O)NC(=O)[C@H](C)NC(=O)[C@H](CC(C)C)NC(=O)[C@H](CCCNC(=N)N)NC(=O)[C@H](CCC(N)=O)NC(=O)[C@@H](NC(=O)[C@H](C)NC(=O)[C@@H]1CSSC[C@H](NC(=O)[C@@H](N)CCCCNC(=O)CC[C@H](NC(=O)CC[C@H](NC(=O)CCCCCCCCCCCCCCCCCCC(=O)O)C(=O)O)C(=O)O)C(=O)N[C@@H](CC(N)=O)C(=O)N[C@@H]([C@@H](C)O)C(=O)N[C@@H](C)C(=O)N[C@@H]([C@@H](C)O)C(=O)N1)[C@@H](C)O)C(=O)N1CCC[C@H]1C(=O)N[C@@H](CO)C(=O)N[C@@H](CO)C(=O)N[C@H](C(=O)N[C@@H](CC(N)=O)C(=O)N[C@H](C(=O)NCC(=O)N1CCC[C@H]1C(=O)N[C@@H](CC(N)=O)C(=O)N[C@H](C(=O)N[C@@H](Cc1ccccc1)C(N)=O)[C@@H](C)O)C(C)C)[C@@H](C)O
Ratio hCT/hAmylin funct. [1]: 9.9 ratio | hCTR funct. EC50 (pM) [1]: 2140 pM | hAmylin-R funct. EC50 (pM) [2]: 216 pM
